Laboratory results reported in patent publication US9957295B2, “Peptides inhibiting cold-inducible RNA binding protein activity” (The Feinstein Institute for Medical Research, priority 2013, dated 2018).

Columns and labels:
[1] = system: RAW 264.7 cells; test: Cytokine release from RAW 264.7 cells stimulated with recombinant CIRP; type: cell-based, murine; conditions: for TNF-α release from RAW 264.7 cells (in words): 100 ng/ml, 4 h, or indicated concentrations and times
Experimental: Murine macrophage-like RAW 264.7 cells were obtained from ATCC (American Type Culture Collection, Manassas, Va.), and were grown in Dulbecco's Modified Eagle's Medium (DMEM, Life Technologies, Grand Island, N.Y.) containing 10% (vol/vol) FBS (heat-inactivated at 56° C. for 30 min), 100 U/ml penicillin, 100 μg/ml streptomycin and 2 mM glutamine. Cells were re-suspended in medium and incubated in 6 or 48-well tissue-culture plates overnight in a humidified incubator (37° C., 5% CO2). In the experiments, cell monolayers were stimulated with or without recombinant CIRP at various indicated concentrations and for various indicated times. The cell-free supernatants were assayed for TNF-α by ELISA or for HMGB1 by western blot analysis.
(§1) As an index of the inflammatory cytokine cascade and the acute inflammatory response, supernatants from cells incubated with recombinant CIRP were measured for TNF-α and IL-6 levels in serum, tissue homogenates, and culture medium grown with macrophages using a commercially available enzyme-linked immunosorbent assay (ELISA) kits (BioSource International, Camarillo, Calif.) according to the manufacturer's instruction. To quantify TNF-α and IL-6 protein levels in serum and tissue, serum samples were harvested 4 h after hemorrhage, or 4 h after treatment with recombinant CIRP from animals by cardiac puncture at the time that the rats were sacrificed, and collected tissue samples, and carried out by the same method as above. HMGB1 levels were determined by Western blotting.
To address whether the extracellular CIRP could function as an inflammatory mediator, recombinant murine CIRP (rmCIRP) was expressed and purified using a bacterial expression system with more than 97% purity and confirmation by Western blotting (FIGS. 16A and B). […] J. Immunol. 174, 3306-3316 (2005); Henderson, B., et al. The extracellular signaling actions of molecular chaperones are not due to microbial contaminants. Cell Stress Chaperones 15, 123-141 (2010)). […]
In parallel experiments, cytokines in the supernatant of cultured RAW cells incubated with rCIRP were measured. […]

[2] = system: healthy rats; test: Administration of recombinant CIRP to healthy rats; type: in vivo, rat
Experimental: as §1
Serum concentrations of aspartate aminotransferase (AST), alanine aminotransferase (ALT), and lactate were determined by using assay kits according to the manufacturer's instructions (Pointe Scientific, Lincoln Park, Mich.).
Healthy rats were intravenously administered rmCIRP (1 mg/kg BW) or normal saline (vehicle). After the injection of rCIRP (1 mg/kg BW) or buffer solution (same volume), as control, serum levels of TNF-α increased markedly in the rCIRP group, about 5 fold higher than buffer (sham) group (FIG. 4A). […] RAW 264.7 cells were incubated with indicated concentrations of rmCIRP for 20 h. HMGB1 levels in conditioned medium (CM) were determined by Western blotting. Band intensities were quantified with densitometry. […] After 4 hours, blood and tissues were collected for analysis. […] Data are mean±s.e.m., n=6-9/group, *P<0.05 vs. vehicle.
In additional groups of normal healthy animals, rCIRP, for example rmCIRP (1 mg/kg BW) or buffer (same volume, 1 ml) were administered. At 4 h after the completion of treatment, blood samples were collected and placed on ice to allow clotting, and then were centrifuged at 1200 g for 10 min at 4° C., and the serum samples were stored at −80° C. until assayed. […]

[3] = system: wild-type and TLR4 knockout mice; test: rmCIRP injection into wild-type and Tlr4−/− mice; type: in vivo, mouse; conditions: 1 or 5 mg/kg BW, after 4 h
Experimental: Tlr4^−/− mice were incubated with 1.5 μg/ml rmCIRP for 4 h. TNF-α levels in conditioned medium were assayed by ELISA. Data are mean±s.e.m. from three independent experiments. *P<0.05 vs. WT. In comparing the difference among wild-type and knockout mice targeting each receptor in response to rmCIRP, only TLR4-deficient macrophages lost the response for TNF-α induction, while RAGE- and TLR2-deficient macrophages maintained similar responses to wild-type macrophages (FIG. 13A). To confirm the requirement of TLR4 in mediating CIRP activity, wild-type and TLR4 knockout mice were injected with rmCIRP (1 or 5 mg/kg BW) or normal saline (vehicle). After 4 h, serum samples were collected and assayed for TNF-α and IL-6 by ELISA and HMGB1 by Western blotting as well as serum AST and ALT. Data are mean±s.e.m., n=6-9/group, *P<0.05 vs. WT no rmCIRP; #P<0.05 vs. WT with rmCIRP at 5 mg/kg. […] In contrast, these deleterious effects of rmCIRP on the wild-type mice were diminished in Tlr4^−/− mice.

B1: rmCIRP: recombinant murine (rat sequence) His-tagged CIRP expressed in E. coli (protein)
chain: MASDEGKLFVGGLSFDTNEQALEQVFSKYGQISEVVVVKDRETQRSRGFGFVTFENIDDAKDAMMAMNGKSVDGRQIRVDQAGKSSDNRSRGYRGGSAGGRGFFRGGRSRGRGFSRGGGDRGYGGGRFESRSGGYGGSRDYYASRSQGGSYGYRSSGGSYRDSYDSYATHNEHHHHHH
TNF-α release from RAW 264.7 cells (in words) [1]: increased TNF-α release in a dose- and time-dependent manner | TNF-α release from RAW 264.7 cells (in words) ([1]; listed as rCIRP): significantly increased TNF-α release | increase of HMGB1 release from cultured RAW cells ([1]; 500 ng/ml, 20 h incubation, Western blot): about 6 fold | serum TNF-α versus buffer (sham) group ([2]; 1 mg/kg BW): about 5 fold | serum TNF-α, IL-6, HMGB1 levels and organ injury markers AST and ALT ([2]; 1 mg/kg BW intravenous, 4 hours, vs normal saline): significantly increased | serum levels of AST and ALT ([2]; 1 mg/kg BW, normal healthy rats): significantly elevated | deleterious effects in Tlr4−/− mice [3]: diminished | serum cytokines and organ injury markers in wild-type mice [3]: increase of serum proinflammatory cytokines (TNF-α, IL-6, and HMGB1) and organ injury markers (AST and ALT) in a dose-dependent manner
